Experimental data from patent US20260234242A1 (HAINAN SIMCERE ZAIMING PHARMACEUTICAL, published 2026).

T1: human CDH6 on tumor cells (OVCAR3 cells, PA-1 cells) (human, UniProt P55285 54-790)
T1 sequence: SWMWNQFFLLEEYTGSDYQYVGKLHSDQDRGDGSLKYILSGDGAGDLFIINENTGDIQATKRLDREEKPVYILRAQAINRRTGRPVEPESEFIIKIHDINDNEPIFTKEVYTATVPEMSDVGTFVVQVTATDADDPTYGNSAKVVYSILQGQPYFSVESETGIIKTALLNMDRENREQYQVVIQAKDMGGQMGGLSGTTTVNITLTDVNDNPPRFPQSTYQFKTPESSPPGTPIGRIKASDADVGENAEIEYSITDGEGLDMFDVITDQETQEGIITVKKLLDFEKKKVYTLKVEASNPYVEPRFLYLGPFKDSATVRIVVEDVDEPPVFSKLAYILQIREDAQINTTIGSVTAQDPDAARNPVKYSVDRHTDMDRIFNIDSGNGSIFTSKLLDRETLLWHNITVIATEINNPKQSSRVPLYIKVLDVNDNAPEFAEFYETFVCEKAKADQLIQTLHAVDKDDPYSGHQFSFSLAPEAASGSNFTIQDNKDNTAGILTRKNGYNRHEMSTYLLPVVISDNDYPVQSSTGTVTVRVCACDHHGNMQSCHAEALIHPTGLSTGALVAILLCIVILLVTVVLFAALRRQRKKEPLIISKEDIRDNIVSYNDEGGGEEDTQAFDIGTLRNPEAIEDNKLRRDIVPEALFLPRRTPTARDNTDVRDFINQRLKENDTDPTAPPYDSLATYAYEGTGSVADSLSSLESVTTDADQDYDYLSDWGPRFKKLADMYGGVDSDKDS


Legend:
[1] = target: T1, human CDH6 on tumor cells (OVCAR3 …); assay: FACS, PA-1 cells
Method: (§1) OVCAR3 cells with high expression of CDH6 and PA-1 cells with moderate expression of CDH6 were used to detect the binding activity of the antibodies to the cells. […] The cells were washed once with PBS, counted, resuspended to 2×10⁶ cells/mL in an FACS buffer (PBS+2% FBS), and then added to a 96-well plate at 50 μL/well. The chimeric antibodies were diluted with FACS buffer (PBS+2% FBS) and added to the 96-well plate at 50 μL/well, and the plate was incubated at 4° C. for 1 h. […] The dilution was added to the 96-well plate at 50 μL/well, and the plate was incubated at 4° C. for 1 h. After the plates were centrifuged and washed 2 times with PBS, the cells were resuspended in an FACS buffer. The mean fluorescence intensity (MFI) was measured using FACS Canton II (BD). Analysis was performed by the GraphPad Prism software, data were fitted, and EC50 values were calculated. The chimeric antibodies tested had strong binding to both OVCAR3 cells and PA-1 cells.

[2] = target: T1, human CDH6 on tumor cells (OVCAR3 …); assay: FACS, OVCAR3 cells, 4° C. arm of endocytosis assay, antibody diluted to 10 µg/mL
Method: OVCAR3 cells were cultured until a confluence of 90% was reached, the medium was removed by pipetting, the cells were washed once with PBS, and then treated with an enzyme-free cell dissociation solution (Versene, purchased from Gibco, Cat. No. 15040-066) and the cells were collected. The cells were washed once with PBS, counted, resuspended to 2×10⁶ cells/mL in an FACS buffer (PBS+2% FBS), and then added to two 96-well plates at 50 μL/well. The chimeric antibodies were diluted with FACS buffer (PBS+2% FBS) to 10 μg/mL and separately added to the two 96-well plates at 50 μL/well, and the plates were incubated at 4° C. for 1 h. After the cells were washed 3 times with PBS, the cells were resuspended in an FACS buffer. One 96-well plate was incubated at 4° C. for 1 h, and the other 96-well plate was incubated at 37° C. for 1 h. […] After the plates were centrifuged and washed 2 times with PBS, the cells were resuspended in an FACS buffer. The mean fluorescence intensity (MFI) was measured using FACS Canton II (BD). The chimeric antibodies tested all had good endocytic activity.

[3] = target: T1, human CDH6 on tumor cells (OVCAR3 …); assay: FACS, OVCAR3 cells
Method: as §1

Binder | EC50 [1] [nM] | Max MFI [1] [MFI] | MFI_4° C. [2] [MFI] | EC50 [3] [nM] | Max MFI [3] [MFI]
NOV0712 (antibody, human IgG1, kappa, V domains shown, Positive control, variable regions from WO2018212136A1; also called positive control anti-human CDH6 antibody) VH: QVQLLESGGGLVQPGGSLRLSCAASGFTFSSHGMHWVRQAPGKGLEWVSVISGSGSNTGYADSVKGRFTISRDNSKNTLYLQMNSLRAEDTAVYYCARQWGSYAFDSWGQGTLVTVSS VL: DIQMTQSPSSLSASVGDRVTITCRASQSISSYLNWYQQKPGKAPKLLIYAVSTLQSGVPSRFSGSGSGTDFTLTISSLQPEDFATYYCQQSGTFPPTTFGQGTKVEIKR | 1.46 | 3600 | 6520 | 1.92 | 11500
CHI-CDH6-13 (antibody, human IgG1, kappa, V domains shown, also called chimeric antibody of murine CDH6-13) VH: DVQLQESGPGLVKPSQSLSLTCSVTGYSITKDSYWNWIRQFPGSKLEWMGFISYDGSRHYNPSLKNRISITRDTSKNQFFLQLNSVTTEDTATYYCARRDYADYWGQGTTLTVSS VL: QIVLTQSPALMSAFPGEKVTMTCSATSSVSYIYWYQQKPRSSPKPWIYLTSNLASGVPARFSGSGSGTSYSLTINSLEAEDAATYYCQQWSSIPYTFGGGTKLEIKR | 1.97 | 4440 | 5970 | 2.08 | 17600
CHI-CDH6-14 (antibody, human IgG1, kappa, V domains shown, also called CHI-hCDH6-14; CH1-CDH6-14) VH: QIQLQQSGPELVKPGTSVKISCKASGYTFTDNYINWVRQRPGQGLEWIGWIYPGTGNSYYNEKFKGKATLTVDTSSSTAYMQFSSLTSEDSAVYLCASSYGDSFDYWGQGTTLTVSS VL: DIQMTQTTSSLSASLGNRVTISCRASQDIRNYLNWYQQKPDGTFKLLISYTSRLHSGVPSRFSGSGSGTDYSLTVSNLEPEDIATYYCQQYSQLPWTFGGGSRLEIKR | 0.26 | 5410 | 9230 | 0.43 | 15700
DS-H01L02 (antibody, human IgG1, kappa, V domains shown, Positive control, variable regions from WO2018212136A1; also called positive control anti-human CDH6 antibody) VH: EVQLVQSGAEVKKPGASVKVSCKASGYTFTRNFMHWVRQAPGQGLEWMGWIYPGDGETEYAQKFQGRVTITADTSTSTAYMELSSLRSEDTAVYYCARGVYGGFAGGYFDFWGQGTLVTVSS VL: DIQMTQSPSSLSASVGDRVTITCKASQNIYKNLAWYQQKPGKAPKLLIYDANTLQTGVPSRFSGSGSGSDFTLTISSLQPEDFATYFCQQYYSGWAFGQGTKVEIKR | 1.09 | 1880 | 3830 | 0.8 | 9730
